US20200140551A1 (GlaxoSmithKline, published 2020)

How the values were obtained:
[1] = biological target: T1, human ICOS on human T cells (human, UniProt Q9Y6W8 21-167); assay: flow cytometry, activated human CD4 T cells, FITC MFI, mean of donors
T1 construct: endogenous receptor on primary cells; also called ICOS on CD4+ and CD8+ T cells of healthy human donors
T1 sequence: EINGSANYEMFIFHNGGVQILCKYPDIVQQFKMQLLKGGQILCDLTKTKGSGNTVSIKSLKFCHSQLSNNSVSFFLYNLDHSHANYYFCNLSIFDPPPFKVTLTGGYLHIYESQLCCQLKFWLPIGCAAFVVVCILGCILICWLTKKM
Experimental: (§1) Either naive and/or activated CD3+ T cells were re-suspended in PBS with 0.1% BSA (FACS Buffer) containing Human FcR Blocking Solution at 2×10⁶ cells/mL (5 μl FcR Blocking Solution+[…] FACS Buffer per 1 mL). At a concentration of 2×10⁵ cells/well, 100 μl cells were placed into 2 mL 96 well Assay Blocks and incubated at room temperature for 15 minutes. During the incubation, a titration of the binding antibodies, anti-ICOS (H2L5 hIgG4PE) or IgG4 Isotype Control antibody was prepared as a 2× concentration. […] Following the binding incubation, cells were washed twice in 1 mL of FACS buffer, centrifuging at 400×g for 5 minutes at room temperature.
(§2) Data acquisition and compensation were performed on BD FACS instruments, LSR Fortessa X-20 or FACS Canto II using BD Diva (ver. 8.0) software. Data analysis employed Flow Jo software (ver.10.0.8r1). Results are reported as both MFI (Median Fluorescence Intensity) and Percent of cells positive for human IgG kappa light chain FITC staining out of the total live cells or appropriate parent population. EC50s were determined using Graphpad Prism 5 software (ver. 5.04) with non-linear regression of transformed data (X=(log(X)) using a variable slope with 4 parameters (log(Agonist) vs. response—Variable slope).

[2] = biological target: T1, human ICOS on human T cells; assay: cell-based or functional assay
human FcγR I = biological target: T2, human FcγR I (human, UniProt P12314 16-288, limits assumed); assay: affinity to human Fcγ receptors; method not described
T2 construct: also called CD64

human FcγR IIb = biological target: T3, human FcγR IIb (human, UniProt P31994 46-217, limits assumed); assay: as above
T3 sequence (looked up): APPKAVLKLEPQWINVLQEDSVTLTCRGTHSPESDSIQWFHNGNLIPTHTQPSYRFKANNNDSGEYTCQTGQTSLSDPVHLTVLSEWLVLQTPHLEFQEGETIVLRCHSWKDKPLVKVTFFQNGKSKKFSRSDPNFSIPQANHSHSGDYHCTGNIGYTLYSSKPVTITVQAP

human FcγR IIa R131 = biological target: T4, human FcγR IIa R131 (human, UniProt P12318 36-218, limits assumed); assay: as above
T4 sequence (looked up): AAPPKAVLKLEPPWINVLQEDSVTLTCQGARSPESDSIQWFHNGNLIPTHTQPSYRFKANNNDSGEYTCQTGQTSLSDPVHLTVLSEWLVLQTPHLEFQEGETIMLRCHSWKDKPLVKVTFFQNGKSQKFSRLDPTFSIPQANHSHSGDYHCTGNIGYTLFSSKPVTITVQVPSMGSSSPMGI

[3] = biological target: T1, human ICOS on human T cells; assay: flow cytometry, activated human CD4 T cells, percent FITC positive, donor 1173F42
Experimental: Binding of H2L5 hIgG4PE was assessed in both naive and activated CD3+ T cells.
as §1, §2

[4] = biological target: T1, human ICOS on human T cells; assay: flow cytometry, activated human CD8 T cells, percent FITC positive, donor 2100M39
Experimental: as §1, §2

T2 sequence (P12314 16-288 limits assumed): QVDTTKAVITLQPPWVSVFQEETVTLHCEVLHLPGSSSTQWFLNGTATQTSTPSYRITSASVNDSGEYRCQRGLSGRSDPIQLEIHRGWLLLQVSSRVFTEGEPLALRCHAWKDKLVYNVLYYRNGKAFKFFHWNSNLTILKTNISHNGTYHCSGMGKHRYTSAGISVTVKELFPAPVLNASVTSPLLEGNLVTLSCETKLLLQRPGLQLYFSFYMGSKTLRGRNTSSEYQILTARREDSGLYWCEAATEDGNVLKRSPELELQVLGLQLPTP

EC50 [1]: 0.977 µg/mL
EC50, CD4+CD25+, PBMC activation assay, donor 185M45, 24 hr [2]: 2.4 µg/mL
EC50, CD4+CD25+, PBMC activation assay, donor 185M45, 48 hr [2]: 0.5 µg/mL
EC50, CD4+CD25+, PBMC activation assay, donor 1124F36, 24 hr [2]: 0.6 µg/mL
EC50, CD4+CD25+, PBMC activation assay, donor 1124F36, 48 hr [2]: 0.6 µg/mL
EC50, CD4+CD25+, PBMC activation assay, donor 1136F50, 24 hr [2]: 0.3 µg/mL
EC50, CD4+CD25+, PBMC activation assay, donor 1136F50, 48 hr [2]: 0.6 µg/mL
EC50, CD4+CD25+, PBMC activation assay, donor 1149M52, 24 hr [2]: 0.6 µg/mL
EC50, CD4+CD25+, PBMC activation assay, donor 1149M52, 48 hr [2]: 0.4 µg/mL
EC50, CD4+CD69+, PBMC activation assay, donor 185M45, 24 hr [2]: 0.8 µg/mL
EC50, CD4+CD69+, PBMC activation assay, donor 1124F36, 24 hr [2]: 1.1 µg/mL
EC50, CD4+CD69+, PBMC activation assay, donor 1124F36, 48 hr [2]: 1.1 µg/mL
EC50, CD4+CD69+, PBMC activation assay, donor 1136F50, 24 hr [2]: 0.5 µg/mL
EC50, CD4+CD69+, PBMC activation assay, donor 1136F50, 48 hr [2]: 0.4 µg/mL
EC50, CD4+CD69+, PBMC activation assay, donor 1149M52, 24 hr [2]: 0.5 µg/mL
EC50, CD4+CD69+, PBMC activation assay, donor 1149M52, 48 hr [2]: 0.4 µg/mL
EC50, CD4+Ki67+, PBMC activation assay, donor 185M45, 48 hr [2]: 0.6 µg/mL
EC50, CD4+Ki67+, PBMC activation assay, donor 1124F36, 48 hr [2]: 0.8 µg/mL
EC50, CD4+Ki67+, PBMC activation assay, donor 1149M52, 48 hr [2]: 0.5 µg/mL
EC50, CD4+OX40+, PBMC activation assay, donor 185M45, 24 hr [2]: 1.6 µg/mL
EC50, CD4+OX40+, PBMC activation assay, donor 1124F36, 24 hr [2]: 0.6 µg/mL
EC50, CD4+OX40+, PBMC activation assay, donor 1124F36, 48 hr [2]: 1.2 µg/mL
EC50, CD4+OX40+, PBMC activation assay, donor 1136F50, 24 hr [2]: 0.2 µg/mL
EC50, CD4+OX40+, PBMC activation assay, donor 1136F50, 48 hr [2]: 0.4 µg/mL
EC50, CD4+OX40+, PBMC activation assay, donor 1149M52, 24 hr [2]: 0.6 µg/mL
EC50, CD4+OX40+, PBMC activation assay, donor 1149M52, 48 hr [2]: 0.4 µg/mL
EC50, CD8+CD25+, PBMC activation assay, donor 185M45, 24 hr [2]: 2 µg/mL
EC50, CD8+CD25+, PBMC activation assay, donor 185M45, 48 hr [2]: 0.5 µg/mL
EC50, CD8+CD25+, PBMC activation assay, donor 1124F36, 24 hr [2]: 0.6 µg/mL
EC50, CD8+CD25+, PBMC activation assay, donor 1124F36, 48 hr [2]: 0.5 µg/mL
EC50, CD8+CD25+, PBMC activation assay, donor 1136F50, 24 hr [2]: 0.4 µg/mL
EC50, CD8+CD25+, PBMC activation assay, donor 1136F50, 48 hr [2]: 0.7 µg/mL
EC50, CD8+CD25+, PBMC activation assay, donor 1149M52, 24 hr [2]: 1 µg/mL
EC50, CD8+CD25+, PBMC activation assay, donor 1149M52, 48 hr [2]: 0.4 µg/mL
EC50, CD8+CD69+, PBMC activation assay, donor 185M45, 24 hr [2]: 1.2 µg/mL
EC50, CD8+CD69+, PBMC activation assay, donor 185M45, 48 hr [2]: 0.5 µg/mL
EC50, CD8+CD69+, PBMC activation assay, donor 1124F36, 24 hr [2]: 0.8 µg/mL
EC50, CD8+CD69+, PBMC activation assay, donor 1124F36, 48 hr [2]: 1.1 µg/mL
EC50, CD8+CD69+, PBMC activation assay, donor 1136F50, 24 hr [2]: 0.5 µg/mL
EC50, CD8+CD69+, PBMC activation assay, donor 1136F50, 48 hr [2]: 0.6 µg/mL
EC50, CD8+CD69+, PBMC activation assay, donor 1149M52, 24 hr [2]: 0.6 µg/mL
EC50, CD8+CD69+, PBMC activation assay, donor 1149M52, 48 hr [2]: 0.4 µg/mL
EC50, CD8+Ki67+, PBMC activation assay, donor 185M45, 48 hr [2]: 0.4 µg/mL
EC50, CD8+Ki67+, PBMC activation assay, donor 1124F36, 48 hr [2]: 0.7 µg/mL
EC50, CD8+Ki67+, PBMC activation assay, donor 1149M52, 48 hr [2]: 0.3 µg/mL
EC50, CD8+OX40+, PBMC activation assay, donor 185M45, 24 hr [2]: 1.6 µg/mL
EC50, CD8+OX40+, PBMC activation assay, donor 1124F36, 24 hr [2]: 2.4 µg/mL
EC50, CD8+OX40+, PBMC activation assay, donor 1124F36, 48 hr [2]: 0.5 µg/mL
EC50, CD8+OX40+, PBMC activation assay, donor 1136F50, 24 hr [2]: 0.3 µg/mL
EC50, CD8+OX40+, PBMC activation assay, donor 1136F50, 48 hr [2]: 0.5 µg/mL
EC50, CD8+OX40+, PBMC activation assay, donor 1149M52, 24 hr [2]: 1.5 µg/mL
EC50, CD8+OX40+, PBMC activation assay, donor 1149M52, 48 hr [2]: 0.3 µg/mL
EC50, IFN-γ, PBMC activation assay, donor 185M45, 24 hr [2]: 0.3 µg/mL
EC50, IFN-γ, PBMC activation assay, donor 185M45, 48 hr [2]: 0.7 µg/mL
EC50, IFN-γ, PBMC activation assay, donor 1124F36, 24 hr [2]: 0.3 µg/mL
EC50, IFN-γ, PBMC activation assay, donor 1124F36, 48 hr [2]: 0.5 µg/mL
EC50, IFN-γ, PBMC activation assay, donor 1136F50, 24 hr [2]: 0.4 µg/mL
EC50, IFN-γ, PBMC activation assay, donor 1136F50, 48 hr [2]: 1.5 µg/mL
EC50, IFN-γ, PBMC activation assay, donor 1149M52, 24 hr [2]: 0.2 µg/mL
EC50, IFN-γ, PBMC activation assay, donor 1149M52, 48 hr [2]: 0.6 µg/mL
EC50, IL-6, PBMC activation assay, donor 185M45, 24 hr [2]: 0.7 µg/mL
EC50, IL-6, PBMC activation assay, donor 185M45, 48 hr [2]: 0.8 µg/mL
EC50, IL-6, PBMC activation assay, donor 1136F50, 24 hr [2]: 0.7 µg/mL
EC50, IL-6, PBMC activation assay, donor 1136F50, 48 hr [2]: 1.1 µg/mL
EC50, IL-6, PBMC activation assay, donor 1149M52, 24 hr [2]: 0.2 µg/mL
EC50, IL-6, PBMC activation assay, donor 1149M52, 48 hr [2]: 0.3 µg/mL
EC50, IL-10, PBMC activation assay, donor 185M45, 24 hr [2]: 0.7 µg/mL
EC50, IL-10, PBMC activation assay, donor 185M45, 48 hr [2]: 0.8 µg/mL
EC50, IL-10, PBMC activation assay, donor 1124F36, 24 hr [2]: 0.7 µg/mL
EC50, IL-10, PBMC activation assay, donor 1124F36, 48 hr [2]: 0.6 µg/mL
EC50, IL-10, PBMC activation assay, donor 1136F50, 24 hr [2]: 1.7 µg/mL
EC50, IL-10, PBMC activation assay, donor 1136F50, 48 hr [2]: 1.3 µg/mL
EC50, IL-10, PBMC activation assay, donor 1149M52, 24 hr [2]: 0.5 µg/mL
EC50, IL-10, PBMC activation assay, donor 1149M52, 48 hr [2]: 0.6 µg/mL
EC50, IL-17a, PBMC activation assay, donor 185M45, 24 hr [2]: 0.8 µg/mL
EC50, IL-17a, PBMC activation assay, donor 185M45, 48 hr [2]: 1.1 µg/mL
EC50, IL-17a, PBMC activation assay, donor 1124F36, 24 hr [2]: 0.6 µg/mL
EC50, IL-17a, PBMC activation assay, donor 1124F36, 48 hr [2]: 0.8 µg/mL
EC50, IL-17a, PBMC activation assay, donor 1136F50, 24 hr [2]: 1.4 µg/mL
EC50, IL-17a, PBMC activation assay, donor 1136F50, 48 hr [2]: 1.6 µg/mL
EC50, IL-17a, PBMC activation assay, donor 1149M52, 24 hr [2]: 0.7 µg/mL
EC50, IL-17a, PBMC activation assay, donor 1149M52, 48 hr [2]: 1 µg/mL
EC50, TNF-α, PBMC activation assay, donor 185M45, 48 hr [2]: 0.5 µg/mL
EC50, TNF-α, PBMC activation assay, donor 1124F36, 48 hr [2]: 0.3 µg/mL
EC50, TNF-α, PBMC activation assay, donor 1136F50, 48 hr [2]: 0.3 µg/mL
EC50, TNF-α, PBMC activation assay, donor 1149M52, 48 hr [2]: 0.2 µg/mL
Kd (human FcγR I): 645 nM
Kd (human FcγR IIb): 1470 nM
Kd (human FcγR IIa R131): 2500 nM
EC50 [3]: 0.612 µg/mL
EC50 [4]: 1.23 µg/mL
B1: H2L5 hIgG4PE (antibody)
heavy: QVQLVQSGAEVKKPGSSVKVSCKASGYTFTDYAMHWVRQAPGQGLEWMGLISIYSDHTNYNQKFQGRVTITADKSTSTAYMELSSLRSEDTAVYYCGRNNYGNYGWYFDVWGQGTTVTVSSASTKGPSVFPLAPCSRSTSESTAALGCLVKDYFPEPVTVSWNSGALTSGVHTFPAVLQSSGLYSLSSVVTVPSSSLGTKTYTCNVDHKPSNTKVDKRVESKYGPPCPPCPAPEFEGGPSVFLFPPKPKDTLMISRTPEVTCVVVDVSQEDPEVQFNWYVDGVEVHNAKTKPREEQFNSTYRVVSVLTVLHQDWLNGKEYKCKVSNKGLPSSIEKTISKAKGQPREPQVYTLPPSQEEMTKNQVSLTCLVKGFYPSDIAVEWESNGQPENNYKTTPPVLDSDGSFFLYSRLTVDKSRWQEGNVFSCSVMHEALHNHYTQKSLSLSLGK
light: EIVLTQSPATLSLSPGERATLSCSASSSVSYMHWYQQKPGQAPRLLIYDTSKLASGIPARFSGSGSGTDYTLTISSLEPEDFAVYYCFQGSGYPYTFGQGTKLEIKRTVAAPSVFIFPPSDEQLKSGTASVVCLLNNFYPREAKVQWKVDNALQSGNSQESVTEQDSKDSTYSLSSTLTLSKADYEKHKVYACEVTHQGLSSPVTKSFNRGEC
notes: also called 422 H2L5 hIgG4PE; H2L5 IgG4PE; copies: 2 + 2
